We go through 14 molecules from USRE46585 (LABORATOIRE FRANCAIS DU FRACTIONNEMENT ET DES …, dated 2017).

Where two headings read alike, the source gives them in different places.

Assay [1] has as its target T1, FcRn-p3 fusion protein (human, UniProt P55899 24-297; P61769 21-119).
T1 construct: baculovirus expressed; coated on ELISA wells; not shown: amino terminal part of bacteriophage p3 protein and CVDE protein
Put plainly: phage ELISA pH6 (est.).

In assay [2] the target is T1, FcRn-p3 fusion protein. Put plainly: phage ELISA pH6. A general note: In an ELISA, binding on a coated surface is turned into a signal by an enzyme label.
The target of assay [3] is T1, FcRn-p3 fusion protein. Put plainly: phage ELISA pH6. This is another data set of the same source.
For assay [4], the target named is T1, FcRn-p3 fusion protein. Nature of the assay: phage ELISA pH6 (est.). The source holds these as a separate data set.

T1 sequence (P55899 24-297, chain 1 of 2): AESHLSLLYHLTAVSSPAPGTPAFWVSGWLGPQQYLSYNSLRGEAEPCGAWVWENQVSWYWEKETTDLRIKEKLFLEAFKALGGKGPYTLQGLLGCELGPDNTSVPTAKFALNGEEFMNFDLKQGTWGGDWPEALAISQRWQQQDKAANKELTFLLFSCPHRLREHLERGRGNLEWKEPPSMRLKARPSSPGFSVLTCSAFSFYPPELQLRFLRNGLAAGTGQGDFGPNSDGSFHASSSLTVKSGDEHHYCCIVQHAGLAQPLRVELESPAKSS
T1 sequence (P61769 21-119, chain 2 of 2): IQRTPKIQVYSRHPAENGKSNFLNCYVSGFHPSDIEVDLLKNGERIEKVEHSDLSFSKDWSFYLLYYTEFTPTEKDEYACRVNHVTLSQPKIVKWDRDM

B1: C6A_60C (other)
chain: CPLCSAPELLGGPSVFLFPPKPKDTLMISRTPEVTCVVVDVSHEDPEVKFNWYVDGVEVHNAKTKPREEQYNSTYRVVSVLTVLHQDWLDGKEYKCKVSNKALPAPIEKTISKAKGQPREPQVYTLPPSRDELTKNQVSLTCLVKGFYPSDIAVEWESNGQPENNYKTTPPVLDSDGSFFLYSKLTVDKSRWQQGNVFSCSVLHEALHYHYTQKSLSLSPGK
notes: EU numbering
Take B1: in the assay with FcRn-p3 fusion protein [1], the Ratio/Fc-WT is 17.1 fold. In addition, the Ratio/Fc-H with FcRn-p3 fusion protein [2] came to 5.3 fold.

B2: T7A_57 (other)
chain: CPPCTAPELLGGPSVFLFPPKPKDTLMISRTPEVTCVVVDVSHEDPEVKFNWYVDGVEVHNAKTKPREEQYNSTYRVVSVLAVLHQDWLDGKEYKCKVSNKALPVPIEKTISKAKGQPREPQVYTLPPSRDELTKNQVSLTCLVKGFYPSDIAVEWESNGQPENNYKTTPPVLDSDGSFFLYSKLTVDKSRWEQGNVFSCSVMHEALHYHYTQKSLSLSPGK
notes: EU numbering
Turning to B2, the Ratio/Fc-H in the assay with FcRn-p3 fusion protein [3] was determined as 2.5 fold. The Ratio/FWT in the assay with FcRn-p3 fusion protein [4] came to 8.1 fold.

B3: C6A_60D (other)
chain: CPRCSAPELLGGPSVFLFPPKPKDTLMISRTPEVTCVVVDVSHEDPEVKFNWYVDGVEVHNAKTKPREEQYNSTYRVVSVLTVLHQDWLDGKEYKCKVSNKALPAPIEKTISKAKGQPREPQVYTLPPSRDELTKNQVSLTCLVKGFYPSDIAVEWESNGQPENNYKTTPPVLDSDGSFFLYSKLTVDKSRWQQGNVFSCSVLHEALHYHYTQKSLSLSPGK
notes: EU numbering
Turning to B3, in the assay with FcRn-p3 fusion protein [1], the Ratio/Fc-WT was 23.8 fold. For the same molecule, the Ratio/Fc-H with FcRn-p3 fusion protein [2] was determined as 7.4 fold.

B4: C6A_69D (other)
chain: CPLCPAPELLGGPSVFLFPPKPKDTLMISRTPEVTCVVVDVSHEDPEVKFNWYVDGVEVHNAKTKPREEQYNSTYRVVSVLAVLHQDWLDGKEYKCKVSNKALPVPIEKTISKAKGQPREPQVYTLPPSRDELTKNQVSLTCLVKGFYPSDIAVEWVSNGQPETNYKTTPPVLDSDGSFFLYSKLTVDKSRWQQGNVFSCSVMHEALHYHYTQKSLSLSPGK
notes: EU numbering
For B4, the Ratio/Fc-WT with FcRn-p3 fusion protein [1] was determined as 15.3 fold. For the same molecule, the Ratio/Fc-H with FcRn-p3 fusion protein [2] amounted to 4.8 fold.

B5: T8A_34 (other)
chain: CPPCPAPELLGGPSVFLFPPKPKDTLMISRTPEVTCVVVDVSHEDPEVKFNWYVDGVEVHNAKTKPREEQYNSTYRVVSVLAVLHQDWLDGKEYKCKVSNKALPAPIEKAISKAKGQPREPQVYTLPPSRDELTKNQVSLTCLVKGFYPSDIAVEWESNGQPENNYKTTPPVLDSDGSFFLYSKLTVDKSRWQQGNVFSCSVMHEALHYHYTQKSLSLSPGK
notes: EU numbering
For B5, in the assay with FcRn-p3 fusion protein [3], the Ratio/Fc-H came to 1.8 fold. In addition, in the assay with FcRn-p3 fusion protein [4], the Ratio/FWT was 5.6 fold.

B6: C6A_78B (other)
chain: CPLCPAPELLGGPSVFLFPPKPKDTLMISRNPEVTCVVVDVSHEDPEVKFNWYVDGVEVHNAKTKPREEQYNSTYRVVSVLTVLHQDWLNGKEYKCKVSNKALPAPIEKTISKAKGQPREPQVYTLPPSRDELTKNQVSLTCLVKGFYPSDIVVEWESNGQPENNYKTTPPVLDSDGSFFLYSKLTVDKSRWQQGNVFSCSVMHEALHYHYTQKSLSLSPGK
notes: EU numbering
Consider B6, for which, in the assay with FcRn-p3 fusion protein [1], the Ratio/Fc-WT turned out to be 45.9 fold. Further, in the assay with FcRn-p3 fusion protein [2], the Ratio/Fc-H worked out at 14.4 fold.

B7: T8A_45 (other)
chain: CPPCPAPELLGGPSVFLFPPKPKDTLMISRTPEVTCVVVDVSHEDPEVKFNWYVDGVEVHNAKTKPREEQYNSTYRVVSVLTVLHQDWLNGKEYKCKVSNKALPAPIEKTISKAKGQPREPQVYTLPPSRDELTKNQVSLTCLVKGFYPADIVVEWESNGQPENNYKTTPPVLDSDGSFFLYSKLTVDKSRWQQGNVFSCSVMHEALHYHYTQKSLSLSPGK
notes: EU numbering
Regarding B7, in the assay with FcRn-p3 fusion protein [3], the Ratio/Fc-H was 1.8 fold. The Ratio/FWT with FcRn-p3 fusion protein [4] worked out at 5.9 fold.

B8: T7A_87 (other)
chain: CPPCSAPELLGGPSVFLFPPKPKDTLMISRTPEVTCVVVDVSHEDPEVKFNWYVDGVEVHNAKTKPREEQYNSTYRVVSVLTVLHQDWLDGKEYKCKVSNKALPAPIEKTISKAKGQPREPQVYTLPPSRDELTKNRVSLTCLVKGFYPSDIAVEWESNGQPENNYKTTPPVLDSDGSFFLYSKLTVDKSRWQQGNVFSCSVMHEALHYHYTQKSLSLSPGK
notes: EU numbering
As for B8, in the assay with FcRn-p3 fusion protein [3], the Ratio/Fc-H turned out to be 2.9 fold. The Ratio/FWT in the assay with FcRn-p3 fusion protein [4] turned out to be 9.3 fold.

B9: T8A_24 (other)
chain: CPPCPAPELLGGPSVFLFPPKPKDTLMISRTPEVTCVVEDVSHEDPEVKFNWYVDGVEVHNAKTKPREEQYNSTYRVVSVLPVLHQDWLNGKEYKCKVSNKALPAPIEKTISKAKGQPREPQVYTLPPSRDELTKNQVSLTCLVKGFYPSDIVVEWESNGQPENNYKTTPPVLDSDGSFFLYSKLTVDKSRWQQGNVFSCSVMHEALHSHYTQKSLSLSPGK
notes: EU numbering
Turning to B9, in the assay with FcRn-p3 fusion protein [3], the Ratio/Fc-H was found to be 3.5 fold. Also, the Ratio/FWT in the assay with FcRn-p3 fusion protein [4] turned out to be 11.1 fold.

B10: C6A_74D (other)
chain: CPRCPAPELLGGPSVFLFPPKPKDTLMISRTPEITCVVVDVSHEDPEVKFNWYVDGVEVHNAKTKPREEQYNSTYRVVSVLTVLHQDWLDGKEYKCKVSNKALPAPIEKTISKAKGQPREPQVYTLPPSRDELTKNQVSLTCLVKGFYPSDIAVEWESNGQPENNYKTTPPVLDSDGSFFLYSKLTVDKSRWQQGNVFSCSVMHEALHYHYTQKSLSLSPGK
notes: EU numbering
As for B10, the Ratio/Fc-WT in the assay with FcRn-p3 fusion protein [1] was 59.7 fold. The Ratio/Fc-H in the assay with FcRn-p3 fusion protein [2] is 18.6 fold.

B11: T8A_81 (other)
chain: CPPCPAPELLGGPSVFLFPPKPKDTLMISRTPEVTCVVADVSHEDPEVKFNWYVDGVEVHNAKTKPREEQYNSTYRVVSVLTVLHQDWLDGKEYKCKVSNKALPAPIEKTISKAKGQPREPQVYTLPPSRDELTKNQVSLTCLVKGFYPSDIAVEWVSNGQPENNYKTTPPVLDSDGSFFLYSKLTVDKSRWQQGNVFSCSVMHEALHYHYTQKSLSLSPGK
notes: EU numbering
Take B11: in the assay with FcRn-p3 fusion protein [3], the Ratio/Fc-H amounted to 2.5 fold. Also, the Ratio/FWT with FcRn-p3 fusion protein [4] is 8.2 fold.

B12: T7A_58 (other)
chain: CPPCPAPELLGGPSVFLFPPKPKDTLMISRTPEVTCVVVDVSHEDPEVKFNWYVDGVEVHNAKTKPREEQYNSTYRVVSVLTVLHQDWLDGKEYKCKVSNKALPAPIEKTISKAKGQPREPQVYTLPPSRDELTKNEVSLTCLVKGFYPSDIAVEWESNGQPENNYKTTPPVLDSDGSFFLYSKLTVDKSRWQQGNVFSCSVMHEALHYHYTQKSLSLSPGK
notes: EU numbering
In the case of B12, the Ratio/Fc-H with FcRn-p3 fusion protein [3] came to 2.9 fold. Moreover, the Ratio/FWT with FcRn-p3 fusion protein [4] is 9.4 fold.

B13: T8A_41 (other)
chain: CPPCPAPELLGGPSVFLFPPKPKDTLMISRTPEVTCVVEDVSHEDPEVKFNWYVDGVEVHNAKTKPREEQYNSTYRVVSVLTVLHQDWLNGKEYKCKVSNKALPAPIEKTISKAKGQSREPQVYTLPPSRDELTKNQVSLTCLVKGFYPSDIVVEWESNGQPENNYKTTPPVLDSDGSFFLYSKLTVDKSRWQQGNVFSCSVMHEALHSHYTQKSLSLSPGK
notes: EU numbering
B13: the Ratio/Fc-H with FcRn-p3 fusion protein [3] came to 2.5 fold. In addition, the Ratio/FWT in the assay with FcRn-p3 fusion protein [4] came to 7.9 fold.

B14: C6A_78C (other)
chain: CPPCSAPELLGGPSVFLFPPKPKDTLMISRNPEVTCVVVDVSHEDPEVKFNWYVDGVEVHNAKTKPREEQYNSTYRVVSVLTVLHQDWLNGKEYKCKVSNKALPAPIEKTISKAKGQPREPQVYTLPPSRDELTKNQVSLTCLVKGFYPSDIVVEWESNGQPENNYKTTPPVLDSDGSFFLYSKLTVDKSRWQQGNVFSCSVMHEALHYHYTQKSLSLSPGK
notes: EU numbering
B14: the Ratio/Fc-WT in the assay with FcRn-p3 fusion protein [1] stood at 29.4 fold. In the assay with FcRn-p3 fusion protein [2], the Ratio/Fc-H is 9.2 fold.
